T1: Human CD3eg linker (human)
T1 construct: single-chain construct; also called recombinant human CD3
T1 chain: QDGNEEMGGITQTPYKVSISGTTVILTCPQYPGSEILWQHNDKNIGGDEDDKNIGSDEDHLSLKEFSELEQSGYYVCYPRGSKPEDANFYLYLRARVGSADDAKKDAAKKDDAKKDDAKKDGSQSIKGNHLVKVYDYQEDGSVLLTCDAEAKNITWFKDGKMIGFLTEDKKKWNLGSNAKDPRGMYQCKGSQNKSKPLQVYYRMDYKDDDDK


Molecular target: T1, Human CD3eg linker
Assay: SPR, vs unmutated H183/L072

fold change of affinity | Binder
1.1 fold | dBBDu183H A100fF/dBBDu072L (antibody, name in Kabat numbering, V domains shown) VH: QVQLVESGGGLVQPGRSLRLSCAASGFTFSNAWMHWVRQAPGKGLEWVAQIKDKGNAYAAYYAPSVKGRFTISRDDSKNSIYLQMNSLKTEDTAVYYCHYVHYASASTVLPFFGVDAWGQGTTVTVSS VL: DIVMTQSPLSLPVTPGEPASISCQASQELVHMNRNTYLHWYQQKPGQAPRLLIYKVSNRFPGVPDRFSGSGSGTDFTLKISRVEAEDVGVYYCAQGTSVPFTFGQGTKLEIK
1 fold | dBBDu183H A102G/dBBDu072L (antibody, name in Kabat numbering, V domains shown) VH: QVQLVESGGGLVQPGRSLRLSCAASGFTFSNAWMHWVRQAPGKGLEWVAQIKDKGNAYAAYYAPSVKGRFTISRDDSKNSIYLQMNSLKTEDTAVYYCHYVHYASASTVLPAFGVDGWGQGTTVTVSS VL: DIVMTQSPLSLPVTPGEPASISCQASQELVHMNRNTYLHWYQQKPGQAPRLLIYKVSNRFPGVPDRFSGSGSGTDFTLKISRVEAEDVGVYYCAQGTSVPFTFGQGTKLEIK
2 fold | dBBDu183H A102F/dBBDu072L (antibody, name in Kabat numbering, V domains shown) VH: QVQLVESGGGLVQPGRSLRLSCAASGFTFSNAWMHWVRQAPGKGLEWVAQIKDKGNAYAAYYAPSVKGRFTISRDDSKNSIYLQMNSLKTEDTAVYYCHYVHYASASTVLPAFGVDFWGQGTTVTVSS VL: DIVMTQSPLSLPVTPGEPASISCQASQELVHMNRNTYLHWYQQKPGQAPRLLIYKVSNRFPGVPDRFSGSGSGTDFTLKISRVEAEDVGVYYCAQGTSVPFTFGQGTKLEIK
1.7 fold | dBBDu183H A100fS/dBBDu072L (antibody, name in Kabat numbering, V domains shown) VH: QVQLVESGGGLVQPGRSLRLSCAASGFTFSNAWMHWVRQAPGKGLEWVAQIKDKGNAYAAYYAPSVKGRFTISRDDSKNSIYLQMNSLKTEDTAVYYCHYVHYASASTVLPSFGVDAWGQGTTVTVSS VL: DIVMTQSPLSLPVTPGEPASISCQASQELVHMNRNTYLHWYQQKPGQAPRLLIYKVSNRFPGVPDRFSGSGSGTDFTLKISRVEAEDVGVYYCAQGTSVPFTFGQGTKLEIK
1.2 fold | dBBDu183H A100fQ/dBBDu072L (antibody, name in Kabat numbering, V domains shown) VH: QVQLVESGGGLVQPGRSLRLSCAASGFTFSNAWMHWVRQAPGKGLEWVAQIKDKGNAYAAYYAPSVKGRFTISRDDSKNSIYLQMNSLKTEDTAVYYCHYVHYASASTVLPQFGVDAWGQGTTVTVSS VL: DIVMTQSPLSLPVTPGEPASISCQASQELVHMNRNTYLHWYQQKPGQAPRLLIYKVSNRFPGVPDRFSGSGSGTDFTLKISRVEAEDVGVYYCAQGTSVPFTFGQGTKLEIK
1.5 fold | dBBDu183H A100fG/dBBDu072L (antibody, name in Kabat numbering, V domains shown) VH: QVQLVESGGGLVQPGRSLRLSCAASGFTFSNAWMHWVRQAPGKGLEWVAQIKDKGNAYAAYYAPSVKGRFTISRDDSKNSIYLQMNSLKTEDTAVYYCHYVHYASASTVLPGFGVDAWGQGTTVTVSS VL: DIVMTQSPLSLPVTPGEPASISCQASQELVHMNRNTYLHWYQQKPGQAPRLLIYKVSNRFPGVPDRFSGSGSGTDFTLKISRVEAEDVGVYYCAQGTSVPFTFGQGTKLEIK
1.4 fold | dBBDu183H A100fK/dBBDu072L (antibody, name in Kabat numbering, V domains shown) VH: QVQLVESGGGLVQPGRSLRLSCAASGFTFSNAWMHWVRQAPGKGLEWVAQIKDKGNAYAAYYAPSVKGRFTISRDDSKNSIYLQMNSLKTEDTAVYYCHYVHYASASTVLPKFGVDAWGQGTTVTVSS VL: DIVMTQSPLSLPVTPGEPASISCQASQELVHMNRNTYLHWYQQKPGQAPRLLIYKVSNRFPGVPDRFSGSGSGTDFTLKISRVEAEDVGVYYCAQGTSVPFTFGQGTKLEIK

The remaining lines, values behind:

Binder | fold change of affinity
dBBDu183H A100fD/dBBDu072L (antibody, name in Kabat numbering, V domains shown) VH: QVQLVESGGGLVQPGRSLRLSCAASGFTFSNAWMHWVRQAPGKGLEWVAQIKDKGNAYAAYYAPSVKGRFTISRDDSKNSIYLQMNSLKTEDTAVYYCHYVHYASASTVLPDFGVDAWGQGTTVTVSS VL: DIVMTQSPLSLPVTPGEPASISCQASQELVHMNRNTYLHWYQQKPGQAPRLLIYKVSNRFPGVPDRFSGSGSGTDFTLKISRVEAEDVGVYYCAQGTSVPFTFGQGTKLEIK | 0.4 fold
dBBDu183H A100fN/dBBDu072L (antibody, name in Kabat numbering, V domains shown) VH: QVQLVESGGGLVQPGRSLRLSCAASGFTFSNAWMHWVRQAPGKGLEWVAQIKDKGNAYAAYYAPSVKGRFTISRDDSKNSIYLQMNSLKTEDTAVYYCHYVHYASASTVLPNFGVDAWGQGTTVTVSS VL: DIVMTQSPLSLPVTPGEPASISCQASQELVHMNRNTYLHWYQQKPGQAPRLLIYKVSNRFPGVPDRFSGSGSGTDFTLKISRVEAEDVGVYYCAQGTSVPFTFGQGTKLEIK | 1.3 fold
dBBDu183H A100fT/dBBDu072L (antibody, name in Kabat numbering, V domains shown) VH: QVQLVESGGGLVQPGRSLRLSCAASGFTFSNAWMHWVRQAPGKGLEWVAQIKDKGNAYAAYYAPSVKGRFTISRDDSKNSIYLQMNSLKTEDTAVYYCHYVHYASASTVLPTFGVDAWGQGTTVTVSS VL: DIVMTQSPLSLPVTPGEPASISCQASQELVHMNRNTYLHWYQQKPGQAPRLLIYKVSNRFPGVPDRFSGSGSGTDFTLKISRVEAEDVGVYYCAQGTSVPFTFGQGTKLEIK | 1.6 fold
dBBDu183H A100fW/dBBDu072L (antibody, name in Kabat numbering, V domains shown) VH: QVQLVESGGGLVQPGRSLRLSCAASGFTFSNAWMHWVRQAPGKGLEWVAQIKDKGNAYAAYYAPSVKGRFTISRDDSKNSIYLQMNSLKTEDTAVYYCHYVHYASASTVLPWFGVDAWGQGTTVTVSS VL: DIVMTQSPLSLPVTPGEPASISCQASQELVHMNRNTYLHWYQQKPGQAPRLLIYKVSNRFPGVPDRFSGSGSGTDFTLKISRVEAEDVGVYYCAQGTSVPFTFGQGTKLEIK | 0.7 fold
dBBDu183H A102K/dBBDu072L (antibody, name in Kabat numbering, V domains shown) VH: QVQLVESGGGLVQPGRSLRLSCAASGFTFSNAWMHWVRQAPGKGLEWVAQIKDKGNAYAAYYAPSVKGRFTISRDDSKNSIYLQMNSLKTEDTAVYYCHYVHYASASTVLPAFGVDKWGQGTTVTVSS VL: DIVMTQSPLSLPVTPGEPASISCQASQELVHMNRNTYLHWYQQKPGQAPRLLIYKVSNRFPGVPDRFSGSGSGTDFTLKISRVEAEDVGVYYCAQGTSVPFTFGQGTKLEIK | 1.5 fold
dBBDu183H A100fR/dBBDu072L (antibody, name in Kabat numbering, V domains shown) VH: QVQLVESGGGLVQPGRSLRLSCAASGFTFSNAWMHWVRQAPGKGLEWVAQIKDKGNAYAAYYAPSVKGRFTISRDDSKNSIYLQMNSLKTEDTAVYYCHYVHYASASTVLPRFGVDAWGQGTTVTVSS VL: DIVMTQSPLSLPVTPGEPASISCQASQELVHMNRNTYLHWYQQKPGQAPRLLIYKVSNRFPGVPDRFSGSGSGTDFTLKISRVEAEDVGVYYCAQGTSVPFTFGQGTKLEIK | 1.6 fold
dBBDu183H A100fH/dBBDu072L (antibody, name in Kabat numbering, V domains shown) VH: QVQLVESGGGLVQPGRSLRLSCAASGFTFSNAWMHWVRQAPGKGLEWVAQIKDKGNAYAAYYAPSVKGRFTISRDDSKNSIYLQMNSLKTEDTAVYYCHYVHYASASTVLPHFGVDAWGQGTTVTVSS VL: DIVMTQSPLSLPVTPGEPASISCQASQELVHMNRNTYLHWYQQKPGQAPRLLIYKVSNRFPGVPDRFSGSGSGTDFTLKISRVEAEDVGVYYCAQGTSVPFTFGQGTKLEIK | 1.2 fold
dBBDu183H A100fY/dBBDu072L (antibody, name in Kabat numbering, V domains shown) VH: QVQLVESGGGLVQPGRSLRLSCAASGFTFSNAWMHWVRQAPGKGLEWVAQIKDKGNAYAAYYAPSVKGRFTISRDDSKNSIYLQMNSLKTEDTAVYYCHYVHYASASTVLPYFGVDAWGQGTTVTVSS VL: DIVMTQSPLSLPVTPGEPASISCQASQELVHMNRNTYLHWYQQKPGQAPRLLIYKVSNRFPGVPDRFSGSGSGTDFTLKISRVEAEDVGVYYCAQGTSVPFTFGQGTKLEIK | 1.5 fold
dBBDu183H A102E/dBBDu072L (antibody, name in Kabat numbering, V domains shown) VH: QVQLVESGGGLVQPGRSLRLSCAASGFTFSNAWMHWVRQAPGKGLEWVAQIKDKGNAYAAYYAPSVKGRFTISRDDSKNSIYLQMNSLKTEDTAVYYCHYVHYASASTVLPAFGVDEWGQGTTVTVSS VL: DIVMTQSPLSLPVTPGEPASISCQASQELVHMNRNTYLHWYQQKPGQAPRLLIYKVSNRFPGVPDRFSGSGSGTDFTLKISRVEAEDVGVYYCAQGTSVPFTFGQGTKLEIK | 1.1 fold
dBBDu183H A100fV/dBBDu072L (antibody, name in Kabat numbering, V domains shown) VH: QVQLVESGGGLVQPGRSLRLSCAASGFTFSNAWMHWVRQAPGKGLEWVAQIKDKGNAYAAYYAPSVKGRFTISRDDSKNSIYLQMNSLKTEDTAVYYCHYVHYASASTVLPVFGVDAWGQGTTVTVSS VL: DIVMTQSPLSLPVTPGEPASISCQASQELVHMNRNTYLHWYQQKPGQAPRLLIYKVSNRFPGVPDRFSGSGSGTDFTLKISRVEAEDVGVYYCAQGTSVPFTFGQGTKLEIK | 1 fold
dBBDu183H A102D/dBBDu072L (antibody, name in Kabat numbering, V domains shown) VH: QVQLVESGGGLVQPGRSLRLSCAASGFTFSNAWMHWVRQAPGKGLEWVAQIKDKGNAYAAYYAPSVKGRFTISRDDSKNSIYLQMNSLKTEDTAVYYCHYVHYASASTVLPAFGVDDWGQGTTVTVSS VL: DIVMTQSPLSLPVTPGEPASISCQASQELVHMNRNTYLHWYQQKPGQAPRLLIYKVSNRFPGVPDRFSGSGSGTDFTLKISRVEAEDVGVYYCAQGTSVPFTFGQGTKLEIK | 1.3 fold
dBBDu183H A100fE/dBBDu072L (antibody, name in Kabat numbering, V domains shown) VH: QVQLVESGGGLVQPGRSLRLSCAASGFTFSNAWMHWVRQAPGKGLEWVAQIKDKGNAYAAYYAPSVKGRFTISRDDSKNSIYLQMNSLKTEDTAVYYCHYVHYASASTVLPEFGVDAWGQGTTVTVSS VL: DIVMTQSPLSLPVTPGEPASISCQASQELVHMNRNTYLHWYQQKPGQAPRLLIYKVSNRFPGVPDRFSGSGSGTDFTLKISRVEAEDVGVYYCAQGTSVPFTFGQGTKLEIK | 0.5 fold
dBBDu183H A102H/dBBDu072L (antibody, name in Kabat numbering, V domains shown) VH: QVQLVESGGGLVQPGRSLRLSCAASGFTFSNAWMHWVRQAPGKGLEWVAQIKDKGNAYAAYYAPSVKGRFTISRDDSKNSIYLQMNSLKTEDTAVYYCHYVHYASASTVLPAFGVDHWGQGTTVTVSS VL: DIVMTQSPLSLPVTPGEPASISCQASQELVHMNRNTYLHWYQQKPGQAPRLLIYKVSNRFPGVPDRFSGSGSGTDFTLKISRVEAEDVGVYYCAQGTSVPFTFGQGTKLEIK | 3.6 fold

Reference: patent US20210388087A1 (Chugai, published 2021)
